# B1: MPZ-GFP: myelin protein zero with a C-terminal monomeric EGFP, expressed from plasmid (protein)
# chain: IVVYTDREVHGAVGSRVTLHCSFWSSEWVSDDISFTWRYQPEGGRDAISIFHYAKGQPYIDEVGTFKERIQWVGDPRWKDGSIVIHNLDYSDNGTFTCDVKNPPDIVGKTSQVTLYVFEKVPTRYGVVLGAVIGGVLGVVLLLLLLFYVVRYCWLRRQAALQRRLSAMEKGKLHKPGKDASKRGRQTPVLYAMLDHSRSTKAVSEKKAKGLGESRKDKK
# modifications: left off: monomeric EGFP, C-terminal, kept
# notes: myelin protein zero with a C-terminal monomeric EGFP, expressed from plasmid
# Assays:
# Type in all cases: cell-based, Homo sapiens
# DR5 = DR5 immunoprecipitation (blotted for DR5, MPZ-GFP, FADD); settings: HCT116 transfected with MPZ-GFP
# Description: IP for DR5 was performed as previously described in [Lu et al. (2014)], using anti-DR5 mAb 5C7-conjugated agarose beads gifted by David Lawrence of the Ashkenazi lab at Genentech Inc.
# [1] = system: PARP / caspase 8 / caspase 3 in HCT116 cells; assay: Western blot of HCT116 lysates (PARP, caspase 8 and caspase 3 cleavage, DR5 level)
# Description: Media and cells for each sample were collected by cell scraping into cold PBS followed by a subsequent wash with 1 ml of cold PBS. The cell pellet was then resuspended in cold lysis buffer (30 mM HEPES pH 7.2, 150 mM NaCl, 1% Triton X100, 1x Roche protease inhibitor) and lysed via needle shearing on ice. Samples were centrifuged at 1000xg for 5 min, and the supernatants were mixed with sample buffer to a final concentration of 1% SDS, 62.5 mM Tris-HCl pH 6.8, 10% glycerol, 0.1% bromophenol blue, 50 mM DTT. Samples were boiled at 95°C and loaded on SDS-PAGE gels (GenScript). Samples were subsequently transferred onto nitrocellulose membranes, blocked with Odyssey buffer (Licor) for 1 hr at RT, and probed with primary antibodies diluted 1:1000 (unless otherwise specified) in Licor Odyssey buffer supplemented with 0.1% Tween 20% at 4°C overnight.
# Bound primary antibodies were probed by HRP-conjugated secondary antibodies (Amersham, Piscataway, NJ, 1:10000) using enhanced chemiluminescence (SuperSignal; Thermo Scientific, Waltham, MA) detected by standard film or through the ChemiDoc XRS+ Imaging System (Bio-Rad).
# HCT116 cells = assay: Trypan blue staining, automated cell counting; parameters: key to Trypan blue- / Trypan blue+ / avg Trypan blue- / avg Trypan blue+: % of cells (Trypan blue positive or negative); settings: for Dead concentration / Live concentration / Total Concentration / Viability (%): hct mpz, BF
# Description: Cells seeded in a 6-well plate were transfected with the specified plasmid for 24 hr and harvested via trypsinization in complete media and ultimately resuspended in 400 μl of media to obtain a concentration of 1.0–3.0 × 10^6 cells/ml. The cell suspension was then mixed 1:1 with 0.4% Trypan blue (Sigma-Aldrich) and incubated at 37°C for 30 min. The percentage of cells staining positive for was then quantified using the Countess II FL Automated Cell Counter (ThermoFisher, catalog # AMQAF1000) default brightfield settings with disposable slides.
# [2] = system: XBP1 mRNA in HCT116 cells; assay: RT-PCR for Xbp1 mRNA splicing; settings: HCT116, 24 hr
# Description: Cells were grown in 6-well plates and harvested with 0.5 ml of TRIzol reagent (Life Technologies) per manufacturer's protocol to extract RNA. […] The reverse transcription product was diluted to 200 μl with 10 mM Tris-HCl pH 8.2 and used at 1:100 dilution for subsequent RT-PCR reactions. 2 μl of cDNA was added to 0.2 μM of forward and reverse primers ([…]; Hs_XBP1_Rev: [NT]), 0.2 mM of each dNTP, 0.5 units of Taq DNA polymerase (Thermo Scientific). The reaction was set at an annealing temperature of 60.5°C with an extension time of 30 s for 26 cycles.
# [3] = biological replicate 1 (05.22.2019)
# [4] = biological replicate 2 (05.24.2019)
# [5] = biological replicate 3 (05.24.2019)
molecule,measurement,setting,value
B1,DR5 pull-down,DR5,enriched for FADD and MPZ-GFP
same,DR5 int (bg subtracted),"[1]; DR5 input levels, Rep 2",739.08
same,normalized DR5 to GAPDH,"[1]; DR5 input levels, Rep 2",0.2156
same,DR5 int (bg subtracted),"[1]; DR5 input levels, Rep 3",357.944
same,normalized DR5 to GAPDH,"[1]; DR5 input levels, Rep 3",0.2423
same,"DR5 levels normalized to GAPDH, average","[1]; DR5 input levels, average of rep 2 and rep 3, Stdev in row below",0.229
same,"caspase 8 and caspase 3 cleavage, high expression","[1]; HCT116, 24 hr",cleavage of caspase 8and its downstream target caspase 3
same,"caspase 8 and 3 cleavage/activity, low expression level","[1]; low levels of MPZ-GFP expression, proper plasma membrane localization",did not induce caspase 8 or 3 activity
same,Trypan blue+,"HCT116 cells; MPZ-GFP, Rep 1",47.8261
same,Trypan blue-,"HCT116 cells; MPZ-GFP, Rep 1",52.1739
same,Trypan blue+,"HCT116 cells; MPZ-GFP, Rep 2",36.3817
same,Trypan blue-,"HCT116 cells; MPZ-GFP, Rep 2",63.6183
same,Trypan blue+,"HCT116 cells; MPZ-GFP, Rep 3",29.5129
same,Trypan blue-,"HCT116 cells; MPZ-GFP, Rep 3",70.4871
same,avg Trypan blue+,"HCT116 cells; MPZ-GFP, avg of Rep 1-3",37.9069
same,avg Trypan blue-,"HCT116 cells; MPZ-GFP, avg of Rep 1-3",62.0931
same,Dead concentration,HCT116 cells; [3],3.87E+05
same,Live concentration,HCT116 cells; [3],4.22E+05
same,Total Concentration,HCT116 cells; [3],8.09E+05
same,Viability (%),HCT116 cells; [3],52.1739%
same,Dead concentration,HCT116 cells; [4],1.07E+06
same,Live concentration,HCT116 cells; [4],1.88E+06
same,Total Concentration,HCT116 cells; [4],2.95E+06
same,Viability (%),HCT116 cells; [4],63.6183%
same,Dead concentration,HCT116 cells; [5],1.21E+06
same,Live concentration,HCT116 cells; [5],2.89E+06
same,Total Concentration,HCT116 cells; [5],4.09E+06
same,Viability (%),HCT116 cells; [5],70.4871%
same,XBP1 mRNA splicing,[2],initiated a few hours post-transfection with MPZ-GFP and later attenuated

# From PMC7041945, “Misfolded proteins bind and activate death receptor 5 to trigger apoptosis during unresolved endoplasmic reticulum stress” (eLife, 2020)
